The text below walks through data of patent CN115772220A (WUHAN ABCLONAL INC, dated 2023).

Test [1] concerns the target 重组人IL-1β蛋白 (recombinant human IL-1β protein, as used in the Gator BLI experiments) (human) (UniProt P01584). Briefly: BLI (Gator Prime), IL-1β on the probe saturated with 1F3, 10A10 as second antibody.
Test [2] has as its target T1, 重组人IL-1β蛋白 (recombinant human IL-1β protein, as used in the Gator BLI experiments) (human, UniProt P01584 117-269).
T1 construct: also called 人白介素-1β; 目的蛋白
Briefly: BLI (Gator Prime), affinity test.

Test [3] concerns the target T2, 重组人白介素-1β，R&D货号:840170 (recombinant human IL-1β standard of the sandwich ELISA) (human, UniProt P01584 117-269).
T2 construct: also called 标准样品; 人白介素-1β蛋白
Briefly: double-antibody sandwich ELISA, 10A10 capture and 1F3-biotin detection, human IL-1β at 100pg/mL.

B1: 兔单克隆抗体10A10 (rabbit monoclonal antibody 10A10 against human IL-1β) (antibody, V domains shown)
VH: QSVEESGGRLVTPGTPLTLTCTVSGFSLSTYAMSWVRQAPGKGLEWIGIISGSGNTAYASWAKGRFTISKTSTTVDLKMTSPTTEDTATYFCARSYEDYANIWGPGTLVTVSS
VL: AQVLTQTPSSVSAAVGGTVTINCQASQSLYNNNELSWYQQKPGQPPKLLIYKASTLASGVSSRFKGSGSGTQFTLTISGVQCDDAATYYCQGDYSCRIADCYAFGGGTEVVVKG
In the case of B1, in test [1], the shift值 stood at 0.214.

B2: 兔单克隆抗体1F3 (rabbit monoclonal antibody 1F3 against human IL-1β) (antibody, V domains shown)
VH: QSVEESGGRLVTPGTPLTLTCTVSGFSLSRNAISWVRQPPGKGLEWIGFISSYDTTYYATWAKGRFTISKTSTTVDLKIASPTTEDTATYFCARETGADNNSNFDIWGPGTLVTVSS
VL: AQVLTQTPSPVSAAVGGTVTINCQSSQSVSHNNWLAWYQQKPGQPPKLLIYDASKLASGVSSRFRGSGSGTQFTLTISGVQCDDAATYYCQGETFCSSADCNAFGGGTELVVKG
notes: In the BLI experiments it was unlabelled; also called 兔抗Human IL-1β单克隆抗体A; 1F3-biotin
In the case of B2, the binding result in test [2] and in test [3] was “binds” in each case.
